Results taken from patent publication US20230111363A1 (LMMUNOMETABOLISM DEVELOPMENT, published 2023).
Residue numbers refer to the chain shown, from its start.

T1: human monocarboxylate transporter 1 (MCT1) (human, UniProt P53985 1-500)
T1 construct: Multi-pass transmembrane transporter, endogenous on HEK WT / HEK293T cells and on primary human T and B cells in the assays; also called human MCT1; SLC16A1
T1 sequence: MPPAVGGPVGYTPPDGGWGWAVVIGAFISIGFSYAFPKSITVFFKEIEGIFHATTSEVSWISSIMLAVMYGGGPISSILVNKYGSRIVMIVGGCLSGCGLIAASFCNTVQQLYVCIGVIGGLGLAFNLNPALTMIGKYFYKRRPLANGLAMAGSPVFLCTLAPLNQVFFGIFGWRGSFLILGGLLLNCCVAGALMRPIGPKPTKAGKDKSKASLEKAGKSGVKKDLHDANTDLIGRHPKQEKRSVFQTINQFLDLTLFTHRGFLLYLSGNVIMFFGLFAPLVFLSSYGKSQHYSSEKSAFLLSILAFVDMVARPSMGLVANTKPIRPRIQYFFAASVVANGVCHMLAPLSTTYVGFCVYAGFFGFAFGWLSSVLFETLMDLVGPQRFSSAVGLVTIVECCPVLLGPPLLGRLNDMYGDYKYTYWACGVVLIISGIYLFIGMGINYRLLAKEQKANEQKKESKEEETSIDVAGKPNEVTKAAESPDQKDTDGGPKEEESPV

B1: anti-human MCT1 antibody Ab2 (antibody, human IgG1, kappa, V domains shown)
VH: QVQLVQSGAEVKKPGASVKVSCTVSGFSLTNYHLQWVRQAPGQGLEWMGFIRSSGNTEYNSEFKSRVTMTRDTSTSTVYMELSSLRSEDTAVYYCARNSWYHGTYYSPGYYVMDAWGQGTLVTVSS
VL: DIQMTQSPSTLSASVGDRVTITCKGSQNINNYLAWYQQKPGKAPKLLIYNRHNLQTGVPSRFSGSGSGTEFTLTISSLQPDDFATYYCYQYSDGYTFGGGTKVEIKR
notes: IgG1EN backbone
B2: anti-human MCT1 antibody Ab3 (antibody, human IgG1, kappa, V domains shown)
VH: EVQLVESGGGLVQPGGSLRLSCTVSGFSLTNYHLQWVRQAPGKGLEWVGFIRSSGNTEYNSEFKSRFTISRDDSKNSLYLQMNSLKTEDTAVYYCARNSWYHGTYYSPGYYVMDAWGQGTLVTVSS
VL: B1 VL
notes: IgG1EN backbone
B3: anti-human MCT1 antibody Ab5 (antibody, human IgG1, kappa, V domains shown)
VH: EVQLVQSGAEVKKPGESLKISCTVSGFSLTNYHLQWVRQMPGKGLEWMGFIRSSGNTEYNSEFKSQVTISADKSISTAYLQWSSLKASDTAMYYCARNSWYHGTYYSPGYYVMDAWGQGTLVTVSS
VL: B1 VL with T10S, E70D, D81E
notes: IgG1EN backbone
B4: anti-human MCT1 antibody Ab4 (antibody, human IgG1, kappa, V domains shown)
VH: B2 VH with Q13K, S77T
VL: B1 VL with T10S, E70D, D81E
notes: IgG1EN backbone
B5: anti-human MCT1 antibody Ab1 (antibody, human IgG1, kappa, V domains shown)
VH: B1 VH
VL: EIVLTQSPGTLSLSPGERATLSCKGSQNINNYLAWYQQKPGQAPRLLIYNRHNLQTGIPDRFSGSGSGTDFTLTISRLEPEDFAVYYCYQYSDGYTFGGGTKVEIKR
notes: human IgG1 effector null (IgG1EN) backbone; also called humanized Framework antibody Ab1
B6: anti-human MCT1 antibody Ab13 (antibody, human IgG1, kappa, V domains shown)
VH: B1 VH with F27R, S99R, Y101R
VL: B5 VL with N30E
notes: IgG1EN backbone
B7: anti-human MCT1 antibody Ab15 (antibody, human IgG1, kappa, V domains shown)
VH: B1 VH with F27R, S99L
VL: B5 VL with N30E
notes: IgG1EN backbone
B8: anti-human MCT1 antibody Ab17 (antibody, human IgG1, kappa, V domains shown)
VH: B1 VH with F27R, Y32I, S99R
VL: B5 VL with N30E
notes: IgG1EN backbone
B9: anti-human MCT1 antibody Ab9 (antibody, human IgG1, kappa, V domains shown)
VH: B1 VH with F27R, L34I, S99R
VL: B5 VL with N30E
notes: IgG1EN backbone
B10: anti-human MCT1 antibody Ab11 (antibody, human IgG1, kappa, V domains shown)
VH: B1 VH with F27R, S99R, Y101H
VL: B5 VL with N30E
notes: IgG1EN backbone
B11: anti-human MCT1 antibody Ab8 (antibody, human IgG1, kappa, V domains shown)
VH: B1 VH with F27R, E58I, S99R
VL: B5 VL with N30E
notes: IgG1EN backbone
B12: anti-human MCT1 antibody Ab19 (antibody, human IgG1, kappa, V domains shown)
VH: B1 VH with F27R, S53R, S99R
VL: B5 VL with N30E
notes: IgG1EN backbone
B13: anti-human MCT1 antibody Ab16 (antibody, human IgG1, kappa, V domains shown)
VH: B1 VH with V24R, F27R, S99R
VL: B5 VL with N30E
notes: IgG1EN backbone
B14: anti-human MCT1 antibody Ab21 (antibody, human IgG1, kappa, V domains shown)
VH: B1 VH with F27R, S99R, A115P
VL: B5 VL
notes: IgG1EN backbone
B15: anti-human MCT1 antibody Ab10 (antibody, human IgG1, kappa, V domains shown)
VH: B1 VH with F27R, N31G, S99R
VL: B5 VL with N30E
notes: IgG1EN backbone
B16: anti-human MCT1 antibody Ab20 (antibody, human IgG1, kappa, V domains shown)
VH: B1 VH with F27R, S99L
VL: B5 VL
notes: IgG1EN backbone
B17: anti-human MCT1 antibody Ab7 (antibody, human IgG1, kappa, V domains shown)
VH: B1 VH with F27R, L29R, S99R
VL: B5 VL with N30E
notes: IgG1EN backbone
B18: anti-human MCT1 antibody Ab12 (antibody, human IgG1, kappa, V domains shown)
VH: B1 VH with F27R, Q35V, S99R
VL: B5 VL with N30E
notes: IgG1EN backbone
B19: anti-human MCT1 antibody Ab14 (antibody, human IgG1, kappa, V domains shown)
VH: B1 VH with F27R, S99R, A115P
VL: B5 VL with N30E
notes: IgG1EN backbone
B20: anti-human MCT1 antibody Ab18 (antibody, human IgG1, kappa, V domains shown)
VH: B1 VH with F27R, Q35G, S99R
VL: B5 VL with N30E
notes: IgG1EN backbone

Each binder was assayed against T1, human monocarboxylate transporter 1 … (assay: cell-based MCT1 binding).

Row | Binder | binding result
1 | B1 | binds
2 | B2 | binds
3 | B3 | binds
4 | B4 | binds

These binders were tested against T1, human monocarboxylate transporter 1 … (assay: cell-based or functional assay).

Row | Binder | IC50 of inhibition of MCT1 mediated transport (bromopyruvate assay, HEK293T cells) [nM]
5 | B5 | 164
6 | B6 | 42
7 | B7 | 48
8 | B8 | 38
9 | B9 | 35
10 | B10 | 35
11 | B11 | 21
12 | B12 | 35
13 | B13 | 31
14 | B14 | 50
15 | B15 | 39
16 | B16 | 83
17 | B17 | 28
18 | B18 | 39
19 | B19 | 40
20 | B20 | 41

Molecular target: T1, human monocarboxylate transporter 1 …
Assay: cell-based or functional assay
Remark: another data set of the same source

Row | Binder | IC50 of inhibition of CD4 T cell proliferation [nM] | IC50 of inhibition of CD8 T cell proliferation [nM]
21 | B5 | 59 | 42
22 | B6 | 3 | 4
23 | B7 | 5 | 8
24 | B8 | 5 | 2
25 | B9 | 4 | 5
26 | B10 | 4 | 5
27 | B11 | 3 | 3
28 | B12 | 5 | 3
29 | B13 | 5 | 3
30 | B14 | 6 | 4
31 | B15 | 3 | 7
32 | B16 | 13 | 6
33 | B17 | 2 | 4
34 | B18 | 4 | 5
35 | B19 | 5 | 6
36 | B20 | 6 | 2

The binders below were run against T1, human monocarboxylate transporter 1 … (assay: competition MSD binding assay, antibody titrated with HEK WT cells expressing MCT1, apparent KD, screening at 25 C).
Method: The mix was incubated at 37° C. for 1-2 days. After incubation, the incubated samples were spun down for 5 min at 500×g to remove cells. A 96-well multi-array plate (Meso Scale Diagnostics, Cat. #L15XA-3) was coated at 4° C. overnight with 1 μg/mL of goat anti human FC in phosphate buffered saline (PBS). Following coating, plates were washed 3 times with 150 μL PBST (PBS with 0.05% Tween 20) and blocked with 150 μL/well of PBS 3% blocker A buffer (Cat #R93BA-1) at 25° C. for 1 hr. Plates were then washed 3 times with PBST. 50 μL of the preincubated antibody: cell dilution series was transferred to the wells and incubated at 25° C. with 700 rpm shaking for 1 hr. Plates were washed 3 times with PBST. Then 100 μL of 1 μg/mL anti-human kappa-biotin antibody (Cat. #2060-08) was added, and plates were incubated at 25° C. with 700 rpm shaking […]. Plates were washed 3 times with PBST, followed by addition of 100 μL of 1 μg/mL MSD Sulfo-tag streptavidin antibody (Meso Scale Diagnostics Cat. #R32 AD1), and plates were incubated at 25° C. with 700 rpm shaking for 1 hr. Plates were washed 3 times with PBST, 150 μL/well of 1× Read Buffer T was added to the wells and analyzed on a SECTOR® Imager 6000 (Meso Scale Diagnostics) 15 min after buffer addition. The apparent KD is determined by fitting a sigmoidal curve to the electrochemiluminescence (ECL) response vs. log (MCT1 receptor concentration) using assay development tool kit graphed with normalized ECL values.

Row | Binder | Kd [nM]
37 | B5 | 5.81
38 | B6 | 2.82
39 | B7 | 1.96
40 | B8 | 1.04
41 | B9 | 4.56
42 | B10 | 1.91
43 | B11 | 0.55
44 | B12 | 0.46
45 | B13 | 0.71
46 | B14 | 0.85
47 | B15 | 0.85
48 | B16 | 0.64
49 | B17 | 0.47
50 | B18 | 1.64
51 | B19 | 1.31
52 | B20 | 5.14

What follows are binders tested against T1, human monocarboxylate transporter 1 … (assay: competition MSD binding assay, antibody titrated with HEK WT cells expressing MCT1, apparent KD, 37 C, average of triplicate).
From the text: Plates were then washed 3 times with PBST. […] Plates were washed 3 times with PBST.

Row | Binder | Kd [nM]
53 | B5 | 1.23
